Assay results from paper PMC6125409.
Where two headings read alike, the source gives them in different places. Blank lines part the entries; values can stand above or below the substance they belong to.

Tests used:
EpCAM ECD (Homo sapiens) [1] = molecular target: EpCAM ECD (Homo sapiens) (UniProt P16422); settings: cited from earlier work
EpCAM ECD (Homo sapiens) [2] = molecular target: EpCAM ECD (Homo sapiens) (UniProt P16422); settings: cited from earlier work; remark: listed apart in the source
[3] = molecular target: mCherry-EpFL (N-terminal fusion of mCherry to full-length EpCAM) (UniProt P16422); test: FRET or BRET; FLIM-FRET, donor sfGFP and acceptor mCherry both N-terminal on EpFL, co-transfected in the same cell (cis; GFPEX/CherryEX), equimolar plasmids; HEK 293 T and HCT8 #L13 cells, fixed; whole cell membrane region

Substance: EpCAM cis-dimer ECD (from UniProt P16422)
- Kd (EpCAM ECD (Homo sapiens) [1]): 0.01 µM

Substance: EpCAM trans-tetramer (dimer-dimer) ECD (from UniProt P16422)
- Kd (EpCAM ECD (Homo sapiens) [2]): 10 µM

- average donor fluorescence lifetime [3]: 1.6 ns
Substance: sfGFP-EpFL (N-terminal fusion of sfGFP to full-length EpCAM) (from UniProt P16422 24-314) (receptor)
